Results from patent publication US20250171562A1 (ALK ABELL, published 2025).

B1: CIgG4E3A1(G4S)2 (Fc fusion)
chain 1: GPPCPPCPAPEFLGGPSVFLFPPKPKDTLMISRTPEVTCVVVDVSQEDPEVQFNWYVDGVEVHNAKTKPREEQFNSTYRVVSVLTVLHQDWLNGKEYKCKVSNKGLPSSIEKTISKAKGQPREPQVYTLPPCQEEMTKNQVSLWCLVKGFYPSDIAVEWESNGQPENNYKTTPPVLDSDGSFFLYSRLTVDKSRWQEGNVFSCSVMHEALHNHYTQKSLSLSLGKGGGGSGGGGSDVQLQESGGGLVQAGGSLRLACAASGRTLSSYVVSWFRQAPGKERKFVAAITWSGLSTTYLDSVQGRFTISRDNTKDTVYLQMNSLKPQDTAIYYCAAGPNIPSILRTRESEYAYWGQGTQVTVS
chain 2: GPPCPPCPAPEFLGGPSVFLFPPKPKDTLMISRTPEVTCVVVDVSQEDPEVQFNWYVDGVEVHNAKTKPREEQFNSTYRVVSVLTVLHQDWLNGKEYKCKVSNKGLPSSIEKTISKAKGQPREPQVCTLPPSQEEMTKNQVSLSCAVKGFYPSDIAVEWESNGQPENNYKTTPPVLDSDGSFFLVSRLTVDKSRWQEGNVFSCSVMHEALHNHYTQKSLSLSLGKGGGGSGGGGSEVQLLESGGGLVQPGGSLRLSCAASGFTFGNYDMAWVRQAPGKRPEWVSSIDTGGDITHYADSVKGRFTISRDNAKNTLYLQMNSLRPEDTAVYWCATDEEYALGPNEFDYYGQGTLVTVSS
B2: CIgG4E4A1(G4S)2 (Fc fusion)
chain 1: GPPCPPCPAPEFLGGPSVFLFPPKPKDTLMISRTPEVTCVVVDVSQEDPEVQFNWYVDGVEVHNAKTKPREEQFNSTYRVVSVLTVLHQDWLNGKEYKCKVSNKGLPSSIEKTISKAKGQPREPQVYTLPPCQEEMTKNQVSLWCLVKGFYPSDIAVEWESNGQPENNYKTTPPVLDSDGSFFLYSRLTVDKSRWQEGNVFSCSVMHEALHNHYTQKSLSLSLGKGGGGSGGGGSDVQLQESGGGLVQPGGSLRLSCAASGFRFSNYAMRWYRQAPGKEREFVARISSTGFITRYTASVRDRFTISRDNDKNMMYLQLNKLTPQDTAHYYCNAESTDYWGQGTQVTVS
chain 2: B1 chain 2
B3: CIgG4E2A1(G4S)3 (Fc fusion)
chain 1: GPPCPPCPAPEFLGGPSVFLFPPKPKDTLMISRTPEVTCVVVDVSQEDPEVQFNWYVDGVEVHNAKTKPREEQFNSTYRVVSVLTVLHQDWLNGKEYKCKVSNKGLPSSIEKTISKAKGQPREPQVYTLPPCQEEMTKNQVSLWCLVKGFYPSDIAVEWESNGQPENNYKTTPPVLDSDGSFFLYSRLTVDKSRWQEGNVFSCSVMHEALHNHYTQKSLSLSLGKGGGGSGGGGSGGGGSDVQLQESGGGLVQAGGSLRLSCAASGRTISRYAVGWFRRPPAKEREFIGINWSGGSTTYADSAEGRFIISRDNAKNTVYLQMNSLKPEDTAVYYCAVPSVLVQGGISNPSQYDYWGQGTQVTVS
chain 2: GPPCPPCPAPEFLGGPSVFLFPPKPKDTLMISRTPEVTCVVVDVSQEDPEVQFNWYVDGVEVHNAKTKPREEQFNSTYRVVSVLTVLHQDWLNGKEYKCKVSNKGLPSSIEKTISKAKGQPREPQVCTLPPSQEEMTKNQVSLSCAVKGFYPSDIAVEWESNGQPENNYKTTPPVLDSDGSFFLVSRLTVDKSRWQEGNVFSCSVMHEALHNHYTQKSLSLSLGKGGGGSGGGGSGGGGSEVQLLESGGGLVQPGGSLRLSCAASGFTFGNYDMAWVRQAPGKRPEWVSSIDTGGDITHYADSVKGRFTISRDNAKNTLYLQMNSLRPEDTAVYWCATDEEYALGPNEFDYYGQGTLVTVSS
B4: CIgG4E3A1(G4S)3 (Fc fusion)
chain 1: GPPCPPCPAPEFLGGPSVFLFPPKPKDTLMISRTPEVTCVVVDVSQEDPEVQFNWYVDGVEVHNAKTKPREEQFNSTYRVVSVLTVLHQDWLNGKEYKCKVSNKGLPSSIEKTISKAKGQPREPQVYTLPPCQEEMTKNQVSLWCLVKGFYPSDIAVEWESNGQPENNYKTTPPVLDSDGSFFLYSRLTVDKSRWQEGNVFSCSVMHEALHNHYTQKSLSLSLGKGGGGSGGGGSGGGGSDVQLQESGGGLVQAGGSLRLACAASGRTLSSYVVSWFRQAPGKERKFVAAITWSGLSTTYLDSVQGRFTISRDNTKDTVYLQMNSLKPQDTAIYYCAAGPNIPSILRTRESEYAYWGQGTQVTVS
chain 2: B3 chain 2
B5: CIgG4E3A1(RS) (Fc fusion)
chain 1: GPPCPPCPAPEFLGGPSVFLFPPKPKDTLMISRTPEVTCVVVDVSQEDPEVQFNWYVDGVEVHNAKTKPREEQFNSTYRVVSVLTVLHQDWLNGKEYKCKVSNKGLPSSIEKTISKAKGQPREPQVYTLPPCQEEMTKNQVSLWCLVKGFYPSDIAVEWESNGQPENNYKTTPPVLDSDGSFFLYSRLTVDKSRWQEGNVFSCSVMHEALHNHYTQKSLSLSLGKRSDVQLQESGGGLVQAGGSLRLACAASGRTLSSYVVSWFRQAPGKERKFVAAITWSGLSTTYLDSVQGRFTISRDNTKDTVYLQMNSLKPQDTAIYYCAAGPNIPSILRTRESEYAYWGQGTQVTVS
chain 2: GPPCPPCPAPEFLGGPSVFLFPPKPKDTLMISRTPEVTCVVVDVSQEDPEVQFNWYVDGVEVHNAKTKPREEQFNSTYRVVSVLTVLHQDWLNGKEYKCKVSNKGLPSSIEKTISKAKGQPREPQVCTLPPSQEEMTKNQVSLSCAVKGFYPSDIAVEWESNGQPENNYKTTPPVLDSDGSFFLVSRLTVDKSRWQEGNVFSCSVMHEALHNHYTQKSLSLSLGKRSEVQLLESGGGLVQPGGSLRLSCAASGFTFGNYDMAWVRQAPGKRPEWVSSIDTGGDITHYADSVKGRFTISRDNAKNTLYLQMNSLRPEDTAVYWCATDEEYALGPNEFDYYGQGTLVTVSS
B6: CIgG4E4A1(RS) (Fc fusion)
chain 1: GPPCPPCPAPEFLGGPSVFLFPPKPKDTLMISRTPEVTCVVVDVSQEDPEVQFNWYVDGVEVHNAKTKPREEQFNSTYRVVSVLTVLHQDWLNGKEYKCKVSNKGLPSSIEKTISKAKGQPREPQVYTLPPCQEEMTKNQVSLWCLVKGFYPSDIAVEWESNGQPENNYKTTPPVLDSDGSFFLYSRLTVDKSRWQEGNVFSCSVMHEALHNHYTQKSLSLSLGKRSDVQLQESGGGLVQPGGSLRLSCAASGFRFSNYAMRWYRQAPGKEREFVARISSTGFITRYTASVRDRFTISRDNDKNMMYLQLNKLTPQDTAHYYCNAESTDYWGQGTQVTVS
chain 2: B5 chain 2
B7: CIgG4E3A1(G4S)1 (Fc fusion)
chain 1: GPPCPPCPAPEFLGGPSVFLFPPKPKDTLMISRTPEVTCVVVDVSQEDPEVQFNWYVDGVEVHNAKTKPREEQFNSTYRVVSVLTVLHQDWLNGKEYKCKVSNKGLPSSIEKTISKAKGQPREPQVYTLPPCQEEMTKNQVSLWCLVKGFYPSDIAVEWESNGQPENNYKTTPPVLDSDGSFFLYSRLTVDKSRWQEGNVFSCSVMHEALHNHYTQKSLSLSLGKGGGGSDVQLQESGGGLVQAGGSLRLACAASGRTLSSYVVSWFRQAPGKERKFVAAITWSGLSTTYLDSVQGRFTISRDNTKDTVYLQMNSLKPQDTAIYYCAAGPNIPSILRTRESEYAYWGQGTQVTVS
chain 2: GPPCPPCPAPEFLGGPSVFLFPPKPKDTLMISRTPEVTCVVVDVSQEDPEVQFNWYVDGVEVHNAKTKPREEQFNSTYRVVSVLTVLHQDWLNGKEYKCKVSNKGLPSSIEKTISKAKGQPREPQVCTLPPSQEEMTKNQVSLSCAVKGFYPSDIAVEWESNGQPENNYKTTPPVLDSDGSFFLVSRLTVDKSRWQEGNVFSCSVMHEALHNHYTQKSLSLSLGKGGGGSEVQLLESGGGLVQPGGSLRLSCAASGFTFGNYDMAWVRQAPGKRPEWVSSIDTGGDITHYADSVKGRFTISRDNAKNTLYLQMNSLRPEDTAVYWCATDEEYALGPNEFDYYGQGTLVTVSS
B8: CIgG4E4A1(G4S)1 (Fc fusion)
chain 1: GPPCPPCPAPEFLGGPSVFLFPPKPKDTLMISRTPEVTCVVVDVSQEDPEVQFNWYVDGVEVHNAKTKPREEQFNSTYRVVSVLTVLHQDWLNGKEYKCKVSNKGLPSSIEKTISKAKGQPREPQVYTLPPCQEEMTKNQVSLWCLVKGFYPSDIAVEWESNGQPENNYKTTPPVLDSDGSFFLYSRLTVDKSRWQEGNVFSCSVMHEALHNHYTQKSLSLSLGKGGGGSDVQLQESGGGLVQPGGSLRLSCAASGFRFSNYAMRWYRQAPGKEREFVARISSTGFITRYTASVRDRFTISRDNDKNMMYLQLNKLTPQDTAHYYCNAESTDYWGQGTQVTVS
chain 2: B7 chain 2

Target: T1, recombinant human IgE (human, UniProt P01854-1 1-428)
T1 construct: made in-house (ALK); preloaded on immobilised FcεRIα in the displacement ELISA
T1 sequence (P01854 other isoform, or with tags, fused parts or gaps): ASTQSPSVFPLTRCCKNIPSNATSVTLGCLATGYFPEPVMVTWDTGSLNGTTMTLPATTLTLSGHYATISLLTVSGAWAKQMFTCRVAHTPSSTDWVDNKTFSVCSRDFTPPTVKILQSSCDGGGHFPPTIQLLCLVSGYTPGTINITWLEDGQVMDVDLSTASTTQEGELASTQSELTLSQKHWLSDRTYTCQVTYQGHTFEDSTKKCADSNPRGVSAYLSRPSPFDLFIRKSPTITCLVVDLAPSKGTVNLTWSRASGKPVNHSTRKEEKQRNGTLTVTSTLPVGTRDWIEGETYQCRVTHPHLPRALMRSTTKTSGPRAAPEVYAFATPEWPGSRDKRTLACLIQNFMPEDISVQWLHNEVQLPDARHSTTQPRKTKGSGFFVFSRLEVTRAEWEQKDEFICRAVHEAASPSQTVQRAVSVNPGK
Assay: IgE-FcεRIα displacement ELISA
Outline: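 sdAbs at pM–μM were incubated 1 h on preformed complexes of 13 ng/ml recombinant human IgE with avi-tag-biotinylated human FcεRIα captured on streptavidin.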

Binder	EC50 [nM]	Max effect [%]
B1	50	> 95
B2	48	90
B3	160	75
B4	36	90
B5		30
B6		40
B7	130	85
B8	130	85
